{"source": "paper doi:10.1101/2024.02.20.581179", "test_in_all_cases": "SEC", "key": {"[1]": {"target": "GST-tagged A. carterae eIF4E-1d1 (not stated | Amphidinium carterae)"}, "[2]": {"target": "GST-tagged A. carterae eIF4E-1a (not stated | Amphidinium carterae)"}, "[3]": {"target": "GST-tagged mouse eIF4E-1 (not stated | mouse)"}, "[4]": {"target": "GST-tagged A. carterae eIF4E-2a (not stated | Amphidinium carterae)"}}, "data": [{"substance": "GST-tagged A. carterae eIF4E-1d1", "values": [{"measurement": "stoichiometry N", "setting": "[1]", "value": 2}]}, {"substance": "GST-tagged A. carterae eIF4E-1a", "values": [{"measurement": "stoichiometry N", "setting": "[2]", "value": 2}]}, {"substance": "GST-tagged mouse eIF4E-1", "values": [{"measurement": "stoichiometry N", "setting": "[3]", "value": 2}]}, {"substance": "GST-tagged A. carterae eIF4E-2a", "values": [{"measurement": "stoichiometry N", "setting": "[4]", "value": 2}]}]}
